Measurements as given in patent publication US20140295452A1 (PIERRE FABRE MEDICAMENT, published 2014).

Tests used:
[1] = biological target: recombinant human c-Met-Fc protein (R&D Systems, cat. 358MT) (human) (UniProt P08581); assay: displacement of [125I]-HGF (200 pM) from c-Met-Fc immobilized on protein A FlashPlate
[2] = biological target: T1, recombinant human c-Met-Fc protein (R&D Systems, cat. 358MT) (human, UniProt P08581 25-932); assay: as above
T1 construct: extracellular domain; Bought reagent (R&D Systems 358MT / 358-MT/CF); also called rh c-Met-Fc; HGF-R/Fc chimera protein; not shown: Fc part; polyhistidine tag implied by capture on an anti-polyhistidine Mab; not described

[3] = biological target: T2, human c-Met receptor, native, on tumor cells and tumor tissue (human, UniProt P08581 25-1390); assay: IHC on paraffin-embedded human breast and stomach tumor tissues
T2 construct: whole, on cells; Endogenous c-Met of human tumor cell lines, U87-MG xenografts and human tumor tissues; also called native c-Met; native receptor on tumor cells

[4] = biological target: T1, recombinant human c-Met-Fc protein (R&D …); assay: Biacore, c-Met-Fc captured by anti-polyhistidine Mab, 224D10 injected second at 20 µg/ml

T1 sequence (P08581 25-932): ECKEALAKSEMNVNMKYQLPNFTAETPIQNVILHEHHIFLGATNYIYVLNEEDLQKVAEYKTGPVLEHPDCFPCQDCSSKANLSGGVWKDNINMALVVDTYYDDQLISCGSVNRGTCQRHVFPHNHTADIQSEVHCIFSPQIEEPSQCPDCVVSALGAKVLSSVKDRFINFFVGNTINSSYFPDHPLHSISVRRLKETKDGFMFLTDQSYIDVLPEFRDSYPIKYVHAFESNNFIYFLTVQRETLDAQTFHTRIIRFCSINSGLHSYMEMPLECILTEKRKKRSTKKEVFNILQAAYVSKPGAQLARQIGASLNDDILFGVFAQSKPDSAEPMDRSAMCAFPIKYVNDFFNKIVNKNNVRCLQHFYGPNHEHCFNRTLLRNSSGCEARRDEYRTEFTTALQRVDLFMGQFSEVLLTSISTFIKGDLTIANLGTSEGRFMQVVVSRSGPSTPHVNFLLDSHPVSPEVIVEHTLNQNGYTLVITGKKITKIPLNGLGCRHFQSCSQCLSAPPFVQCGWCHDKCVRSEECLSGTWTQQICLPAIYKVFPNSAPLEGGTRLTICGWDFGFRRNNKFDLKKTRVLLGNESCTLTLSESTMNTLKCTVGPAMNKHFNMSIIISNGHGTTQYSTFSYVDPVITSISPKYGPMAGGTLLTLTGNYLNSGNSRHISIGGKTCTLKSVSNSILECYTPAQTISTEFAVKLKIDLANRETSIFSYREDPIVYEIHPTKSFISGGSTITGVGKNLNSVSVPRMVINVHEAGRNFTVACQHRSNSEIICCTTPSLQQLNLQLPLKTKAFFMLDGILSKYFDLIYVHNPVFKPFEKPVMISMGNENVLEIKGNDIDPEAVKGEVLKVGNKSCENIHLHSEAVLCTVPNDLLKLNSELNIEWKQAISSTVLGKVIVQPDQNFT
Sequence of recombinant human c-Met-Fc protein (R&D Systems, cat. 358MT) (human) (P08581 25-932): as above
T2 sequence (P08581 25-1390): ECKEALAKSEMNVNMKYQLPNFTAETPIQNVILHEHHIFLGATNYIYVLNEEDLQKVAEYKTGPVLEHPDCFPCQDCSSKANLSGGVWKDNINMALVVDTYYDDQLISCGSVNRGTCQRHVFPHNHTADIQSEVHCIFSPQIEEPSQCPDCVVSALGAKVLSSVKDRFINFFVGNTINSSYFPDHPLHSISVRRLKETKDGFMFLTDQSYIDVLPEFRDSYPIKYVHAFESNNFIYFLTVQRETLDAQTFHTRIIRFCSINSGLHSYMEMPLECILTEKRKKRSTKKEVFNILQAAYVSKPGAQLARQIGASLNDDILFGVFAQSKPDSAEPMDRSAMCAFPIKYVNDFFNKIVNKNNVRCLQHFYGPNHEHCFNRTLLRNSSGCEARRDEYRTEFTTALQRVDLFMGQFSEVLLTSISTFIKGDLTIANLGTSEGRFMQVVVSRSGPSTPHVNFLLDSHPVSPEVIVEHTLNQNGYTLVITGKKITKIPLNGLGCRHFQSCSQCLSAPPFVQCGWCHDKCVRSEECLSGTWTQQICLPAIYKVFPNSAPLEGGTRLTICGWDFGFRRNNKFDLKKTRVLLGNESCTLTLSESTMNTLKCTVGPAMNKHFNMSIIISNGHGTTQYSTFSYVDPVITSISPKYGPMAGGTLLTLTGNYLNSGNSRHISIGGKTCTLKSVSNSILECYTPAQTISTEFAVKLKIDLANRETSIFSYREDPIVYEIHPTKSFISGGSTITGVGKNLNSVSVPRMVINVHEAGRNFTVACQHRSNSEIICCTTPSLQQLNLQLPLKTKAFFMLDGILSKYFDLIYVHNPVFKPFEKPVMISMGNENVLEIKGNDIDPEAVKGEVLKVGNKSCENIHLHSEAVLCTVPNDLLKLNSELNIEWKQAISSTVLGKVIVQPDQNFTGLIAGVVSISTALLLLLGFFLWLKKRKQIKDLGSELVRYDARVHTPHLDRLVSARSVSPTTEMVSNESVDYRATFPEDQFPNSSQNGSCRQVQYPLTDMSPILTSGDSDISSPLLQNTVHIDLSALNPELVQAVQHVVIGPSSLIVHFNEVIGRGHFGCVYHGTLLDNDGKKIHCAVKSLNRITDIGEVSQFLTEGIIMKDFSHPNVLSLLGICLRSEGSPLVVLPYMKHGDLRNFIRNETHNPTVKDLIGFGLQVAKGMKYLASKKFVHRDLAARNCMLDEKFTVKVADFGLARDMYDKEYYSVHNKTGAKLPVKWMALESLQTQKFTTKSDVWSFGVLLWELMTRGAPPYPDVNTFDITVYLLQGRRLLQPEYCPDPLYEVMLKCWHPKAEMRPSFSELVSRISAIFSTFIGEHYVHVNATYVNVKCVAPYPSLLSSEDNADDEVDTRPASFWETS

Molecule: 5D5 anti-c-Met Mab (Genentech, hybridoma at the ATCC) (antibody)
- IC50 [1]: 4.4 nM

B1: 11E1 anti-c-Met Mab (antibody, V domains shown)
VH: QVQLQQSGAELAKPGASVKMSCKASGYTFTSYWMNWVKQRPGQGLEWIGYINPTTGSTDYNQKLKDKATLTADKSSNTAYMQLSSLTSEDSAVYYCAIGGYGSWFAYWGQGTLVTVSA
VL: QIVLTQSPAIMSASPGEKVTLTCSASSSVSSTYLYWYQQKPGSSPKLWIYTTSILASGVPARFSGSGSGTSYSLTISSMETEDAASYFCHQWSSYPFTFGSGTKLDIK
- IC50 [2]: 42 nM

B2: murine 224D10 monoclonal antibody (antibody, V domains shown)
VH: DLQLQESGPGLVKPSQSLSLTCSVTGYSITSAYFWSWIRQFPGNKLEWMGFINYDGTNNYNPSLKNRISITRDTSKNQFFLRLNSVTTDDTATYYCTRDRTFAYWGQGTLVTVSA
VL: DIVLTQSPATLSVTPGDRVSLSCRASQRIYNYLHWYQQKSHESPRLLIKYASQSISGIPSRFSGSGSGTDFILTINSVETEDFGMYFCQQSNSWPLTFGAGTKLELR
notes: Whole murine monoclonal antibody secreted by hybridoma CNCM I-3949; a murine IgG1 (9G4) served as its isotype control; also called m224D10; 224D10 Mab
- binding result [3]: binds
- binding result [4]: binds
